Patent US7226603

T1: HBV core antigen (hepatitis B virus), P03146
T1 chain: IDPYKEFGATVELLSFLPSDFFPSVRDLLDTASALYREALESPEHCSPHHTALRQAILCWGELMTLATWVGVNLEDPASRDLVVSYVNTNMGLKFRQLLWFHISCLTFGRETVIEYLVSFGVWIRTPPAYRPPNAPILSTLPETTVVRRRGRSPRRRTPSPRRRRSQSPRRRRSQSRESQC

T2: C-terminally truncated HBV core antigen (aa3-148) (hepatitis B virus), P03146
T2 chain: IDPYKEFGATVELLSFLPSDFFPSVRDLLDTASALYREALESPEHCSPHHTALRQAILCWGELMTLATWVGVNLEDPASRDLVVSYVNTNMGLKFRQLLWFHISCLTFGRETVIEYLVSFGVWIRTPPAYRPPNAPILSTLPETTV


How the values were obtained:
[1] = biological target: T1, HBV core antigen (hepatitis B virus), …; test: relative dissociation constant (KD^Rel), fd fusion phage with HBV core antigen in solution
[2] = biological target: T2, C-terminally truncated HBV core antigen …; test: EDC/sulpho-NHS crosslinking, SDS-PAGE band shift

| Binder | Kd [1] | yield of the shifted (crosslinked) protein band [2] |
| --- | --- | --- |
| ADGYQRSLLGRMKGA (modifications not checked) [fd fusion phage carrying … (SEQ ID NO: 25)] | 0.88 nM | – |
| ADGSLLGRMKPA (modifications not checked) [fd fusion phage carrying … (SEQ ID NO: 15)] | 322 nM | – |
| ADGALLGRMKRA (modifications not checked) [fd fusion phage carrying … (SEQ ID NO: 16)] | 181 nM | – |
| ADRSLLGRMKGA (modifications not checked) [fd fusion phage carrying … (SEQ ID NO: 19)] | 1.09 nM | – |
| ADGAHRSLLGRMKGA (modifications not checked) [fd fusion phage carrying … (SEQ ID NO: 24)] | 0.94 nM | – |
| MHRSLLGRMKGA (modifications not checked) [peptide … (SEQ ID NO: 40)] | – | < 50% |
| ADGALLGRMKPA (modifications not checked) [fd fusion phage carrying … (SEQ ID NO: 14)] | 767 nM | – |
| ADGTLLGRMKLA (modifications not checked) [fd fusion phage carrying … (SEQ ID NO: 17)] | 20 nM | – |
| ADGSRSSLLGRMKGA (modifications not checked) [fd fusion phage carrying … (SEQ ID NO: 20)] | 1.96 nM | – |
| ADGTQRSLLGRMKGA (modifications not checked) [fd fusion phage carrying … (SEQ ID NO: 26)] | 0.84 nM | – |
| ADGPRSSLLGRMKGA (modifications not checked) [fd fusion phage carrying … (SEQ ID NO: 23)] | 0.84 nM | – |
| ADGHRSSLLGRMKGA (modifications not checked) [fd fusion phage carrying … (SEQ ID NO: 22)] | 1.4 nM | – |
